Laboratory results published in patent US5932425A, “Compositions and methods for modulating cellular NF-κB activation” (Signal Pharmaceuticals, Inc., priority 1997, dated 1999).
Each block holds one molecule with its values, some of them ahead of it. Non-standard residues stand in square brackets, D forms with d. No end group written: not given here. pS = N[C@@H](COP(=O)(O)O)C(=O)O

Key:
[1] = tested on: NF-κB nuclear translocation in HeLa cells; assay: Microinjection into HeLa cells, TNFα activation, p65 nuclear staining; type: cell-based, human; conditions: 5 mg/ml microinjected, TNFα 200 units/mL for 20 minutes
Protocol: Following microinjection, cells are stimulated (e.g., with TNFα) and incubated to allow NF-κB activation. In HeLa cells, TNFα induces rapid nuclear translocation of NF-κB into the nucleus, which may be detected by staining with p65-specific antibodies. Modulating agents induce a statistically significant decrease in NF-κB translocation, and may reduce such translocation to undetectable levels.
(§1) HeLa cells were plated on a grid coverslips (Cellocate, Eppendorf) 18 hours before microinjection. Microinjection was performed with a 22 amino acid pIκBα peptide (pp21; Table I and SEQ ID NO:9) or a control phospho-Fos peptide (SEQ ID NO:10) using a semi-automated apparatus (Eppendorf). Peptides were injected into the cell cytoplasm at a concentration of 5 mg/ml in 100 mM KCl, 5 mM Na2 HPO4 (pH 7.2), and immediately activated with TNFα (200 units/mL) for either 20 minutes (for NF-κB translocation) or 3 hours (for E-selectin expression). Following activation, the cells were fixed and stained with p65 specific antibodies (Mercurio et al., Genes & Dev. 7:705, 1993; Santa Cruz) or monoclonal anti-E-selectin antibodies (R&D Systems).

[2] = tested on: E-selectin expression in HUVEC; assay: Microinjection into HUVEC, TNFα activation, E-selectin staining; type: cell-based, human; conditions: 5 mg/ml microinjected, TNFα 3 hours
Description: Primary human vascular endothelial cells (HUVEC) respond to TNFα stimulation by surface expression of NF-κB regulated adhesion proteins such as ICAM-1, V-CAM-1 and E-selectin (Read et al., Immunity 2:493,1995; Chen et al., J. Immunol 155:3538, 1995). E-selectin expression is particularly NF-κB dependent and is the major inducible endothelial adhesion molecule for initial neutrophil attachment and rolling on activated endothelium. Stimulated cells may be fixed and stained to detect expression of one or more NF-κB regulated adhesion proteins.
as §1, with “Systems). […]” for “Systems).”

[3] = molecular target: pIκBα ubiquitination (E3 ubiquitin ligase); assay: In vitro ubiquitination assay of phosphorylated, NF-κB complex-associated IκBα; type: biochemical, human; conditions: complex-associated 35S-pIκBα, HeLa extract, Bestatin 40 μg/ml; read-out: IC50 of inhibition of the pIκBα ubiquitin conjugation reaction
Protocol: Following incubation, 1 μl of anti-p65 serum was added, and the NF-κB immune complex was immobilized to Protein A-Sepharose® and subjected to in vitro ubiquitination in HeLa cell extract as described by Alkalay et al. Ubiquitinated proteins were separated by SDS-PAGE and visualized by autoradiography.
To identify the IκBα-ubiquitin ligase recognition motif, various peptides were added at varying concentrations to the reaction mixtures in the presence of the peptidase inhibitor Bestatin (40 μg/ml). The peptides spanned the N-terminal signaling domain of the protein, and were phosphorylated at one or both serine residues (32 and 36), or were unmodified or serine-substituted. These peptides were included in the ubiquitination reaction at different concentrations and tested for inhibition of pIκBα specific ubiquitination. When conjugation of free IκBα was monitored, the translated protein was added directly to the conjugation reaction mixture.

[4] = molecular target: specific E3 ubiquitin ligase that recognises phosphorylated IκB

Molecule: CKKERLLDDRHDS*GLDS*MKDEE (CKKERLLDDRHD[pS]GLD[pS]MKDEE) [pp21]
microinjected cells in which TNFα-stimulated NF-κB activation was abolished [1]: 50%-70% | microinjected cells with inhibition of E-selectin expression [2]: 70%-80%

Molecule: CDS*GLDS*M (CD[pS]GLD[pS]M) [pp7]
IC50 [3]: 10 µM

B1: doubly phosphorylated IκBα peptide pp11 (peptide)
peptide: CDDRHD[pS]GLD[pS]M
IC50 of inhibition of the pIκB conjugation reaction [4]: 5 µM

B2: doubly phosphorylated IκBα peptide pp19 (peptide)
peptide: CERLLDDRHD[pS]GLD[pS]MKDEE
IC50 of inhibition of the pIκB conjugation reaction [4]: 5 µM

B3: doubly phosphorylated IκBα peptide pp15 (peptide)
peptide: CDDRHD[pS]GLD[pS]MKDEE
IC50 of inhibition of the pIκB conjugation reaction [4]: 5 µM

B4: doubly phosphorylated IκBα peptide pp7 (peptide)
peptide: CD[pS]GLD[pS]M
IC50 of inhibition of pIκBα ubiquitination [4]: 10 µM

Continued, values first:

IC50 of inhibition of the pIκB conjugation reaction [4]: 5 µM
B5: doubly phosphorylated IκBα peptide pp21 (peptide)
peptide: CKKERLLDDRHD[pS]GLD[pS]MKDEE

IC50 of inhibition of the pIκBα conjugation [4]: 400 µM
B6: singly phosphorylated IκBα peptide ppS32 (peptide)
peptide: CKKERLLDDRHD[pS]GLDSMKDEE

IC50 of inhibition of the pIκBα conjugation [4]: 400 µM
B7: singly phosphorylated IκBα peptide ppS36 (peptide)
peptide: CKKERLLDDRHDSGLD[pS]MKDEE
